Measured values as given in patent US20210388087A1 (Chugai, published 2021).

B1: H183/L072 VL F55A (antibody, name in Kabat numbering, V domains shown)
VH: QVQLVESGGGLVQPGRSLRLSCAASGFTFSNAWMHWVRQAPGKGLEWVAQIKDKGNAYAAYYAPSVKGRFTISRDDSKNSIYLQMNSLKTEDTAVYYCHYVHYASASTVLPAFGVDAWGQGTTVTVSS
VL: DIVMTQSPLSLPVTPGEPASISCQASQELVHMNRNTYLHWYQQKPGQAPRLLIYKVSNRAPGVPDRFSGSGSGTDFTLKISRVEAEDVGVYYCAQGTSVPFTFGQGTKLEIK
B2: H183/L072 VL F55P (antibody, name in Kabat numbering, V domains shown)
VH: QVQLVESGGGLVQPGRSLRLSCAASGFTFSNAWMHWVRQAPGKGLEWVAQIKDKGNAYAAYYAPSVKGRFTISRDDSKNSIYLQMNSLKTEDTAVYYCHYVHYASASTVLPAFGVDAWGQGTTVTVSS
VL: DIVMTQSPLSLPVTPGEPASISCQASQELVHMNRNTYLHWYQQKPGQAPRLLIYKVSNRPPGVPDRFSGSGSGTDFTLKISRVEAEDVGVYYCAQGTSVPFTFGQGTKLEIK
B3: H183/L072 VL F55Q (antibody, name in Kabat numbering, V domains shown)
VH: QVQLVESGGGLVQPGRSLRLSCAASGFTFSNAWMHWVRQAPGKGLEWVAQIKDKGNAYAAYYAPSVKGRFTISRDDSKNSIYLQMNSLKTEDTAVYYCHYVHYASASTVLPAFGVDAWGQGTTVTVSS
VL: DIVMTQSPLSLPVTPGEPASISCQASQELVHMNRNTYLHWYQQKPGQAPRLLIYKVSNRQPGVPDRFSGSGSGTDFTLKISRVEAEDVGVYYCAQGTSVPFTFGQGTKLEIK
B4: H183/L072 VL F55H (antibody, name in Kabat numbering, V domains shown)
VH: QVQLVESGGGLVQPGRSLRLSCAASGFTFSNAWMHWVRQAPGKGLEWVAQIKDKGNAYAAYYAPSVKGRFTISRDDSKNSIYLQMNSLKTEDTAVYYCHYVHYASASTVLPAFGVDAWGQGTTVTVSS
VL: DIVMTQSPLSLPVTPGEPASISCQASQELVHMNRNTYLHWYQQKPGQAPRLLIYKVSNRHPGVPDRFSGSGSGTDFTLKISRVEAEDVGVYYCAQGTSVPFTFGQGTKLEIK
B5: H183/L072 VL F55G (antibody, name in Kabat numbering, V domains shown)
VH: QVQLVESGGGLVQPGRSLRLSCAASGFTFSNAWMHWVRQAPGKGLEWVAQIKDKGNAYAAYYAPSVKGRFTISRDDSKNSIYLQMNSLKTEDTAVYYCHYVHYASASTVLPAFGVDAWGQGTTVTVSS
VL: DIVMTQSPLSLPVTPGEPASISCQASQELVHMNRNTYLHWYQQKPGQAPRLLIYKVSNRGPGVPDRFSGSGSGTDFTLKISRVEAEDVGVYYCAQGTSVPFTFGQGTKLEIK
B6: H183/L072 VL F96D (antibody, name in Kabat numbering, V domains shown)
VH: QVQLVESGGGLVQPGRSLRLSCAASGFTFSNAWMHWVRQAPGKGLEWVAQIKDKGNAYAAYYAPSVKGRFTISRDDSKNSIYLQMNSLKTEDTAVYYCHYVHYASASTVLPAFGVDAWGQGTTVTVSS
VL: DIVMTQSPLSLPVTPGEPASISCQASQELVHMNRNTYLHWYQQKPGQAPRLLIYKVSNRFPGVPDRFSGSGSGTDFTLKISRVEAEDVGVYYCAQGTSVPDTFGQGTKLEIK
B7: H183/L072 VL F55W (antibody, name in Kabat numbering, V domains shown)
VH: QVQLVESGGGLVQPGRSLRLSCAASGFTFSNAWMHWVRQAPGKGLEWVAQIKDKGNAYAAYYAPSVKGRFTISRDDSKNSIYLQMNSLKTEDTAVYYCHYVHYASASTVLPAFGVDAWGQGTTVTVSS
VL: DIVMTQSPLSLPVTPGEPASISCQASQELVHMNRNTYLHWYQQKPGQAPRLLIYKVSNRWPGVPDRFSGSGSGTDFTLKISRVEAEDVGVYYCAQGTSVPFTFGQGTKLEIK
B8: H183/L072 VL F55T (antibody, name in Kabat numbering, V domains shown)
VH: QVQLVESGGGLVQPGRSLRLSCAASGFTFSNAWMHWVRQAPGKGLEWVAQIKDKGNAYAAYYAPSVKGRFTISRDDSKNSIYLQMNSLKTEDTAVYYCHYVHYASASTVLPAFGVDAWGQGTTVTVSS
VL: DIVMTQSPLSLPVTPGEPASISCQASQELVHMNRNTYLHWYQQKPGQAPRLLIYKVSNRTPGVPDRFSGSGSGTDFTLKISRVEAEDVGVYYCAQGTSVPFTFGQGTKLEIK
B9: H183/L072 VL F55I (antibody, name in Kabat numbering, V domains shown)
VH: QVQLVESGGGLVQPGRSLRLSCAASGFTFSNAWMHWVRQAPGKGLEWVAQIKDKGNAYAAYYAPSVKGRFTISRDDSKNSIYLQMNSLKTEDTAVYYCHYVHYASASTVLPAFGVDAWGQGTTVTVSS
VL: DIVMTQSPLSLPVTPGEPASISCQASQELVHMNRNTYLHWYQQKPGQAPRLLIYKVSNRIPGVPDRFSGSGSGTDFTLKISRVEAEDVGVYYCAQGTSVPFTFGQGTKLEIK
B10: H183/L072 VL F55L (antibody, name in Kabat numbering, V domains shown)
VH: QVQLVESGGGLVQPGRSLRLSCAASGFTFSNAWMHWVRQAPGKGLEWVAQIKDKGNAYAAYYAPSVKGRFTISRDDSKNSIYLQMNSLKTEDTAVYYCHYVHYASASTVLPAFGVDAWGQGTTVTVSS
VL: DIVMTQSPLSLPVTPGEPASISCQASQELVHMNRNTYLHWYQQKPGQAPRLLIYKVSNRLPGVPDRFSGSGSGTDFTLKISRVEAEDVGVYYCAQGTSVPFTFGQGTKLEIK
B11: H183/L072 VL F96E (antibody, name in Kabat numbering, V domains shown)
VH: QVQLVESGGGLVQPGRSLRLSCAASGFTFSNAWMHWVRQAPGKGLEWVAQIKDKGNAYAAYYAPSVKGRFTISRDDSKNSIYLQMNSLKTEDTAVYYCHYVHYASASTVLPAFGVDAWGQGTTVTVSS
VL: DIVMTQSPLSLPVTPGEPASISCQASQELVHMNRNTYLHWYQQKPGQAPRLLIYKVSNRFPGVPDRFSGSGSGTDFTLKISRVEAEDVGVYYCAQGTSVPETFGQGTKLEIK
B12: H183/L072 VL F55E (antibody, name in Kabat numbering, V domains shown)
VH: QVQLVESGGGLVQPGRSLRLSCAASGFTFSNAWMHWVRQAPGKGLEWVAQIKDKGNAYAAYYAPSVKGRFTISRDDSKNSIYLQMNSLKTEDTAVYYCHYVHYASASTVLPAFGVDAWGQGTTVTVSS
VL: DIVMTQSPLSLPVTPGEPASISCQASQELVHMNRNTYLHWYQQKPGQAPRLLIYKVSNREPGVPDRFSGSGSGTDFTLKISRVEAEDVGVYYCAQGTSVPFTFGQGTKLEIK
B13: H183/L072 VL F55D (antibody, name in Kabat numbering, V domains shown)
VH: QVQLVESGGGLVQPGRSLRLSCAASGFTFSNAWMHWVRQAPGKGLEWVAQIKDKGNAYAAYYAPSVKGRFTISRDDSKNSIYLQMNSLKTEDTAVYYCHYVHYASASTVLPAFGVDAWGQGTTVTVSS
VL: DIVMTQSPLSLPVTPGEPASISCQASQELVHMNRNTYLHWYQQKPGQAPRLLIYKVSNRDPGVPDRFSGSGSGTDFTLKISRVEAEDVGVYYCAQGTSVPFTFGQGTKLEIK
B14: H183/L072 VL F96H (antibody, name in Kabat numbering, V domains shown)
VH: QVQLVESGGGLVQPGRSLRLSCAASGFTFSNAWMHWVRQAPGKGLEWVAQIKDKGNAYAAYYAPSVKGRFTISRDDSKNSIYLQMNSLKTEDTAVYYCHYVHYASASTVLPAFGVDAWGQGTTVTVSS
VL: DIVMTQSPLSLPVTPGEPASISCQASQELVHMNRNTYLHWYQQKPGQAPRLLIYKVSNRFPGVPDRFSGSGSGTDFTLKISRVEAEDVGVYYCAQGTSVPHTFGQGTKLEIK
B15: H183/L072 VL F55V (antibody, name in Kabat numbering, V domains shown)
VH: QVQLVESGGGLVQPGRSLRLSCAASGFTFSNAWMHWVRQAPGKGLEWVAQIKDKGNAYAAYYAPSVKGRFTISRDDSKNSIYLQMNSLKTEDTAVYYCHYVHYASASTVLPAFGVDAWGQGTTVTVSS
VL: DIVMTQSPLSLPVTPGEPASISCQASQELVHMNRNTYLHWYQQKPGQAPRLLIYKVSNRVPGVPDRFSGSGSGTDFTLKISRVEAEDVGVYYCAQGTSVPFTFGQGTKLEIK
B16: H183/L072 VL F55K (antibody, name in Kabat numbering, V domains shown)
VH: QVQLVESGGGLVQPGRSLRLSCAASGFTFSNAWMHWVRQAPGKGLEWVAQIKDKGNAYAAYYAPSVKGRFTISRDDSKNSIYLQMNSLKTEDTAVYYCHYVHYASASTVLPAFGVDAWGQGTTVTVSS
VL: DIVMTQSPLSLPVTPGEPASISCQASQELVHMNRNTYLHWYQQKPGQAPRLLIYKVSNRKPGVPDRFSGSGSGTDFTLKISRVEAEDVGVYYCAQGTSVPFTFGQGTKLEIK
B17: H183/L072 VL F55M (antibody, name in Kabat numbering, V domains shown)
VH: QVQLVESGGGLVQPGRSLRLSCAASGFTFSNAWMHWVRQAPGKGLEWVAQIKDKGNAYAAYYAPSVKGRFTISRDDSKNSIYLQMNSLKTEDTAVYYCHYVHYASASTVLPAFGVDAWGQGTTVTVSS
VL: DIVMTQSPLSLPVTPGEPASISCQASQELVHMNRNTYLHWYQQKPGQAPRLLIYKVSNRMPGVPDRFSGSGSGTDFTLKISRVEAEDVGVYYCAQGTSVPFTFGQGTKLEIK
B18: H183/L072 VL F55S (antibody, name in Kabat numbering, V domains shown)
VH: QVQLVESGGGLVQPGRSLRLSCAASGFTFSNAWMHWVRQAPGKGLEWVAQIKDKGNAYAAYYAPSVKGRFTISRDDSKNSIYLQMNSLKTEDTAVYYCHYVHYASASTVLPAFGVDAWGQGTTVTVSS
VL: DIVMTQSPLSLPVTPGEPASISCQASQELVHMNRNTYLHWYQQKPGQAPRLLIYKVSNRSPGVPDRFSGSGSGTDFTLKISRVEAEDVGVYYCAQGTSVPFTFGQGTKLEIK
B19: H183/L072 VL F55N (antibody, name in Kabat numbering, V domains shown)
VH: QVQLVESGGGLVQPGRSLRLSCAASGFTFSNAWMHWVRQAPGKGLEWVAQIKDKGNAYAAYYAPSVKGRFTISRDDSKNSIYLQMNSLKTEDTAVYYCHYVHYASASTVLPAFGVDAWGQGTTVTVSS
VL: DIVMTQSPLSLPVTPGEPASISCQASQELVHMNRNTYLHWYQQKPGQAPRLLIYKVSNRNPGVPDRFSGSGSGTDFTLKISRVEAEDVGVYYCAQGTSVPFTFGQGTKLEIK
B20: H183/L072 VL F55R (antibody, name in Kabat numbering, V domains shown)
VH: QVQLVESGGGLVQPGRSLRLSCAASGFTFSNAWMHWVRQAPGKGLEWVAQIKDKGNAYAAYYAPSVKGRFTISRDDSKNSIYLQMNSLKTEDTAVYYCHYVHYASASTVLPAFGVDAWGQGTTVTVSS
VL: DIVMTQSPLSLPVTPGEPASISCQASQELVHMNRNTYLHWYQQKPGQAPRLLIYKVSNRRPGVPDRFSGSGSGTDFTLKISRVEAEDVGVYYCAQGTSVPFTFGQGTKLEIK

Biological target: T1, Human CD3eg linker (human)
T1 construct: Single-chain construct; also called recombinant human CD3
T1 chain: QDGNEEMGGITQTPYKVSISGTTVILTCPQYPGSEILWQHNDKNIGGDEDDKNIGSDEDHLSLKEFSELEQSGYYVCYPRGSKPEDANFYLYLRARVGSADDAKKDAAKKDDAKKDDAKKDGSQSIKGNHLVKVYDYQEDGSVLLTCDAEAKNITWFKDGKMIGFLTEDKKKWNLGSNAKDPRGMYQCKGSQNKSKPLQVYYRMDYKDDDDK
Test: SPR; fold vs parent H183/L072

**Q.** How did the “fold change of affinity” value turn out when B1 was run?
**A.** Its value is 7.2 fold.

**Q.** B2 was tested. Which “fold change of affinity” value did it give?
**A.** The value was 8.1 fold.

**Q.** With B3 as the binder, how does the “fold change of affinity” value read?
**A.** The value was 2.9 fold.

**Q.** With B4 as the binder, how does the “fold change of affinity” value read?
**A.** The value was 7.4 fold.

**Q.** How did the “fold change of affinity” value turn out when B5 was run?
**A.** The value was 8.1 fold.

**Q.** B6 was tested. Which “fold change of affinity” value did it give?
**A.** Its value is 0 fold.

**Q.** B7 was tested. Which “fold change of affinity” value did it give?
**A.** The value was 0.2 fold.

**Q.** Which “fold change of affinity” value does the source give for B8 here?
**A.** The value was 4.2 fold.

**Q.** B9 was tested. Which “fold change of affinity” value did it give?
**A.** The value was 3.4 fold.

**Q.** Which “fold change of affinity” value does the source give for B10 here?
**A.** Its value is 2.9 fold.

**Q.** B11 was tested. Which “fold change of affinity” value did it give?
**A.** The value was 0 fold.

**Q.** With B12 as the binder, how does the “fold change of affinity” value read?
**A.** The value was 3.4 fold.

**Q.** With B13 as the binder, how does the “fold change of affinity” value read?
**A.** The value was 6.1 fold.

**Q.** With B14 as the binder, how does the “fold change of affinity” value read?
**A.** Its value is 0 fold.

**Q.** Which “fold change of affinity” value does the source give for B15 here?
**A.** The value was 4.4 fold.

**Q.** How did the “fold change of affinity” value turn out when B16 was run?
**A.** The value was 8.3 fold.

**Q.** With B17 as the binder, how does the “fold change of affinity” value read?
**A.** Its value is 3.6 fold.

**Q.** B18 was tested. Which “fold change of affinity” value did it give?
**A.** The value was 6.6 fold.

**Q.** With B19 as the binder, how does the “fold change of affinity” value read?
**A.** The value was 3.9 fold.

**Q.** How did the “fold change of affinity” value turn out when B20 was run?
**A.** The value was 4 fold.
